Variants at the floor of the assay were thinned out.
B1: TPR 5TU (parent)
chain: GGAUCUUCUCGAUCUAACAAAAAAGACAAAUCUGCCACAAAGCUUGAGAGCAUCUUCGGAUGCAGAGGCGGCAGCCUUCGGUGGCGCGAUAGCGCCAACGUUCUCAACUAUGACACGCAAAACGCGUGCUCCGUUGAAUGGAGUUUAUCAUG

Variants of: B1
Experiment: polymerase ribozyme fitness, log enrichment relative to wild type (log ratio); higher = more active; in vitro selection for triplet polymerase activity
Procedure, shortened: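 Genotype fitness is the logarithm of its enrichment divided by wild-type enrichment, using inverse-variance-weighted averages of replicates. That logarithm is base 2. Enrichment was measured by Illumina sequencing of input and output libraries from one triplicate in vitro selection round, with frozen incubation at −7 °C, on PCR-built, transcribed mutant libraries of each subunit of a heterodimeric triplet polymerase ribozyme, retaining genotypes with ≥10 input reads and ≥1 read per output.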

| Variant | polymerase ribozyme fitness (log ratio) |
| --- | --- |
| G25U U56A G84U C95A C96U A119C G141U U148C C149A | ≤ -4.2 |
| A26U A97U A119G | -2.34 |
| A26C A52C | -3.22 |
| A23U U61A A107U A115G | ≤ -4.2 |
| A24C A26U U31A G68U C87A A89G A98G C132G | ≤ -4.2 |
| A24U C54A G58A G84A A120G G126U | -1.19 |
| A26U U31C A39U U90C | ≤ -4.2 |
| A26U U56A C93U | -3.4 |
| A26U G92A | -3.86 |
| A24C G67A G92U | ≤ -4.2 |
| A26U G86U | -3.84 |
| A23U C99U | -3.84 |
| A24U A49C C54U C75G C85A A122U U144C A147C | ≤ -4.2 |
| A26G U31A G48A A60C C76G A107C A119U | ≤ -4.2 |
| A23U C93A U135C | ≤ -4.2 |
| A24U U31A C63G C76A | -3.16 |
| A24G U44A A49C U82G A122U G140C C149U | -4.02 |
| A23U A29U | -3.88 |
| A24U C57U C69G G84A C87A A115C | ≤ -4.2 |
| A23U G68A A73U C99U | ≤ -4.2 |
| A23U A40U A73G | ≤ -4.2 |
| A24U U77A G92A C125G | ≤ -4.2 |
| A24G C51G G59C G92C C99U C125U | ≤ -4.2 |
| A26U A89C C95U U104A A107G | ≤ -4.2 |

| Variant | polymerase ribozyme fitness (log ratio) |
| --- | --- |
| G25U A52C C63U G88C U127C | ≤ -4.2 |
| A26U C85A | -2.68 |
| A26G A30C G59A G74A G84U | -3.99 |
| A24U U56A | 0.265 |
| A26C C87U A122G A142G | -3.94 |
| A26G C27G C87U U148A | ≤ -4.2 |
| A26U G84A C118A | -3.09 |
| G25C C27U U45C G71U U82A G83A G92U | ≤ -4.2 |
| A26G U53A C85U A91G G133A U139A | ≤ -4.2 |
| A23G G86A G100A | ≤ -4.2 |
| A26G C76A | -3.95 |
| A24C A40U G94A C116A | ≤ -4.2 |
| A24U A97G U151C | ≤ -4.2 |
| A24G G62U C85U U146A | ≤ -4.2 |
| A26U C118G | -2.12 |
| A24C G42A A52G U55A C76U C123G G126A | ≤ -4.2 |
| A23U A119G A120U G152A | ≤ -4.2 |
| A24U U33G U77A C87U | ≤ -4.2 |
| A24G C27G A28G C32A U55A U56A C76A C85A G92C U130G | ≤ -4.2 |
| G25U G58U A97C | -2.23 |
| G25U A52G U56A A60G G133C | -4.06 |
| A24U C35U C75U | -2.19 |
| A24U G42A G88A G92A A115C | ≤ -4.2 |
| A26G A28U G42C G59C C96G C105G C116U | -4.04 |

| Variant | polymerase ribozyme fitness (log ratio) |
| --- | --- |
| G25C G86A G94U | -3.91 |
| A24U C93U U104G | -1.84 |
| A26G G46A G48C C51U G71C C103U A120G C149G | ≤ -4.2 |
| A26G A40G U55A G92A C123G C125U G126A U127C | ≤ -4.2 |
| A26U C36A G58C A89G G94U A138G | ≤ -4.2 |
| A23U G42U G58U C75U U148G | ≤ -4.2 |
| G25C A52C U53A C87U G92C A98G U104G C108G U135G | ≤ -4.2 |
| A24U C93U C118U A121G | -1.37 |
| G25U C63G G88C C108U | -3.94 |
| A26U A52G C85U | -1.69 |
| A26C C105U | -2.13 |
| A23U C27G A37U C95G A110G G140C | -3.86 |
| A26C C87U | -1.69 |
| G25C C105U U144C | -2.67 |
| A26U U151C | ≤ -4.2 |
| A23U A52G C76U C79A C103A | ≤ -4.2 |
| G25U G84A | -3.07 |
| A23U A41G | -3.88 |
| A23U U44A U55A A122U | ≤ -4.2 |
| G25U A49G A52U U90G C125G A142U G143C | ≤ -4.2 |
| A23G C87U U127C | -3.81 |
| A24U C99U | -1.46 |
| A24C G58A | ≤ -4.2 |
| G25U A49C G88U A97G | ≤ -4.2 |

| Variant | polymerase ribozyme fitness (log ratio) |
| --- | --- |
| A26G C35G C57A G81C C87G | ≤ -4.2 |
| A24U A121U G124U | -1.16 |
| A24U U45G G86A | -2.58 |
| A23U C72U G83A U109A U151G | ≤ -4.2 |
| G25A C76U C87A A110G A120G | ≤ -4.2 |
| A26G G42U G48C G50U G84C C87G | ≤ -4.2 |
| G25A C35U U56A A60C C85A C93U A106C | ≤ -4.2 |
| A23U A28G U55A G59A U78G G128A | -3.79 |
| A26U U56A U101G A115G | -3.42 |
| A26C C54G A121G | -2.79 |
| A24U A52G C79G G94A A107G | ≤ -4.2 |
| A23U C85A | ≤ -4.2 |
| A23U G50A C95U A137G | ≤ -4.2 |
| A24U G86C | -2.81 |
| A24U C96U C129G | -3.47 |
| A23U C57A G92C C149G | ≤ -4.2 |
| A26G G59U | -3.78 |
| G25C U78G C87U G117U C118U U148A | ≤ -4.2 |
| A26C C32G G34C U44A A107G C131U U139C U145C | ≤ -4.2 |
| G25A C51U G59C G88A U102G G136U | ≤ -4.2 |
| A24C C75A A106U C132G U139C A142U | ≤ -4.2 |
| G25U A52C C87A U90G A142G | ≤ -4.2 |
| A26C C57U C85G G92U | ≤ -4.2 |
| A26C A60U A107C A115G | ≤ -4.2 |

| Variant | polymerase ribozyme fitness (log ratio) |
| --- | --- |
| A26C A41G A47C C69G G83A C93U G124U | ≤ -4.2 |
| A26C A66C G81C G83C | -4.1 |
| A23U A29G U101C | ≤ -4.2 |
| A24U A37U C51A C87U A98U G100U | ≤ -4.2 |
| G25U C36U G67C C85G C87U A89U | ≤ -4.2 |
| A23G U101A | -3.18 |
| A24C G58A G59A A147C | ≤ -4.2 |
| A24C G46A C116G | -4.14 |
| A24G C108U U148G | ≤ -4.2 |
| A24G U31C | -3.52 |
| A26U A41C U44A G59A G126U G128A A137G | ≤ -4.2 |
| G25U A26G G68C A107G U135C | ≤ -4.2 |
| A26C G86A C99U G141C | -3.84 |
| A24U G48A A49G G50A U55A C123A G136C | ≤ -4.2 |
| A24C A37C G59A C99G A107U | ≤ -4.2 |
| A26G A73U C85A U151G | ≤ -4.2 |
| A26G C27U G46U G50U C75A | ≤ -4.2 |
| G25U C35U G86C C103U G133U | ≤ -4.2 |
| G25U G34U A47C A89G | ≤ -4.2 |
| G25A C54A G84U C114U A115G A121C U145G A150U | ≤ -4.2 |
| C27A A30C A89G G92A C105U G140U | -3.96 |
| A23U C96U U127C U144G A150G | ≤ -4.2 |
| A26G A41C G94A A115C | -3.45 |
| A24U A52C C87A | ≤ -4.2 |

| Variant | polymerase ribozyme fitness (log ratio) |
| --- | --- |
| A24G G124U | -4.06 |
| A24U A60G C79G C96G U109C | ≤ -4.2 |
| G25A C51U G92U A119U G124U | -3.78 |
| G25U C103G | -3.2 |
| A23U A29C C85G A110G G112U | ≤ -4.2 |
| A26U C75U U148G | ≤ -4.2 |
| A26U C54A G65A A98G | -4.2 |
| A24G G92A A121U A147G | ≤ -4.2 |
| A26G G88C A91C C93A C116U | ≤ -4.2 |
| A24U A113C | -3.05 |
| A26U A40C C76A G92C A121C | ≤ -4.2 |
| A26C C51U A66G U77A C149G | ≤ -4.2 |
| A26C G94A C131U | -1.51 |
| A24U A37G | -2.41 |
| A26G G83A G88A G94U C149G | -4.19 |
| A26U C35A U104G A150C | ≤ -4.2 |
| A24C G50C U56A C93U G94C U148C | ≤ -4.2 |
| G25C G58A C72A G80A C87A C118G | ≤ -4.2 |
| G25U C76G G92A A119U U145A C149A U151G | ≤ -4.2 |
| A26C G59U A89C A113G C132G G141U | ≤ -4.2 |
| A26C U44G A91U U145C | ≤ -4.2 |
| A24U G42C G50U C85G G136A G141A | ≤ -4.2 |
| A24U G83U G136A U146C A150G | -3.59 |
| A24U C27U C36U G58C G83A G112U A121G G124C | ≤ -4.2 |

| Variant | polymerase ribozyme fitness (log ratio) |
| --- | --- |
| A26C C63U C85A A120U | -3.53 |
| A23G U44A G88A | -4.1 |
| A26C U53A G58A | -2.74 |
| A24C U33A C35G U53A U82C G92U G136A | ≤ -4.2 |
| C27A A60U G133A U135C A150U | ≤ -4.2 |
| A24U G50U G59A | 0.438 |
| A23U G83U C93A G126U C129U | ≤ -4.2 |
| A24U A40C U55A A60G C75G C96G U104G | ≤ -4.2 |
| A26U A49C | ≤ -4.2 |
| A23U C38U C114U G126A | ≤ -4.2 |
| A24U A28C A52G G71A C96G A137C | ≤ -4.2 |
| G25C A26U A30U A39U U56G U77A A138U | ≤ -4.2 |
| G25A A28U G94A U102A A137C | ≤ -4.2 |
| A24U G58A G88U | ≤ -4.2 |
| A26G G42C C95U A150U | ≤ -4.2 |
| A26G C32G A64G C103A | ≤ -4.2 |
| G25C C75U A91G C99A G124U U134A | ≤ -4.2 |
| A24C A37C U53A A66U C95A C114G U135C U144A | ≤ -4.2 |
| A26U U53A | -1.58 |
| G25C A39U U44C A91G C95U | ≤ -4.2 |
| A26C C85A G94C | -1.83 |
| A24G G83U | -3.03 |
| A26U C36G U134A G143U U144C | ≤ -4.2 |

From the RNAGym collection of RNA variant scans (doi:10.1073/pnas.2313332121)
